pIC50: −log10 of the molar value.

The target of the assay is HLA-A*02:01. Nature of the assay: IEDB peptide-MHC binding, purified MHC/competitive/radioactivity; ≥ and ≤ were set here for values at or beyond the usual limits of such assays. The conditions noted are these: source organism: Human alphaherpesvirus 1.
Broadly, the pIC50 is the IC50 on a negative log10 scale, so that one unit is a factor of ten. VLAAGVLVV: the negative-log IC50 (pIC50) is 6.63.

Turning to TLLRLACEV, the negative logarithm of the IC50 (pIC50) is 7.19.

Regarding TMLEDHEFV, the pIC50 was 6.93.

As for GLFVSLPVV, the pIC50 was 8.33.

Turning to ALVELNSGV, the negative-log IC50 (pIC50) was 8.03.

Consider SVYALGFGV, for which the pIC50 is 5.89.

As to FMHIWLQAA, the negative logarithm of the IC50 (pIC50) is 7.09.

Regarding ILDAARPAV, the pIC50 was 7.00.

As to FMAAKAAHL, the negative-log IC50 (pIC50) was 6.56.

With VLDCVVTGA, the pIC50 is 6.01.

YLCSLAVVL: the negative logarithm of the IC50 (pIC50) is 7.77.

For the sequence FVAPYFESV, the negative-log IC50 (pIC50) is 8.06.

In the case of FTINIAAYL, the pIC50 is 6.91.

Take VILPACAFV: the pIC50 is 8.21.

Turning to ILSPTAPSV, the pIC50 is 8.21.

Consider KIFRCLTVL, for which the pIC50 was 6.80.

As for GLDEQQLDV, the negative logarithm of the IC50 (pIC50) is 5.93.

RTAWWVWCV: the pIC50 was 7.59.

As to MLYVIFPGT, the negative-log IC50 (pIC50) was 6.50.

With FLTCTDRSV, the negative-log IC50 (pIC50) is 7.08.

With RLQHLVAEI, the pIC50 is 6.85.

For the sequence RLVDGVGGI, the negative-log IC50 (pIC50) was 6.66.

Consider RLNNRPIAV, for which the pIC50 is 7.70.

On to GMHPRGVHA, for which the pIC50 is not above 4.15.

Turning to AMDLVLAAV, the pIC50 was 8.36.

As to MLRDRWSLV, the pIC50 is 6.51.

As for HLCRYVALL, the pIC50 was 6.70.

In the case of VLAAVLLGA, the pIC50 was 7.28.

Consider RLQFGPPPV, for which the negative-log IC50 (pIC50) was 7.96.

Regarding RLLEVMDSL, the negative logarithm of the IC50 (pIC50) was 6.84.

For the sequence GLVFRFSEV, the pIC50 was 6.58.

LLGQVQTYV: the negative logarithm of the IC50 (pIC50) is 7.74.

Regarding RLSPFPALV, the pIC50 is 7.22.

On to LLMGCDIVL, for which the pIC50 was 8.64.

For RLTGYPAGI, the negative-log IC50 (pIC50) was 5.96.

Consider RMGELTAEI, for which the negative logarithm of the IC50 (pIC50) was 7.04.

For the sequence AMDSDLGSL, the pIC50 is 6.01.

For HLMRDPALL, the negative-log IC50 (pIC50) was 7.43.

On to ALMLRLLRI, for which the pIC50 is 7.34.

With AMHARMAAV, the pIC50 is 7.72.

For the sequence SEEEGNFYV, the pIC50 is 4.72.

On to FLGAGALAV, for which the negative-log IC50 (pIC50) is 7.10.

As to GILTVVWTA, the pIC50 is 8.68.

As for LLLRQWLHV, the negative logarithm of the IC50 (pIC50) was 6.68.

For SLNARGLLV, the pIC50 was 6.84.

Take MLLATREYV: the negative-log IC50 (pIC50) was 7.34.

For FLGDDPSPA, the pIC50 was 7.89.

Consider LLNNYDVLV, for which the pIC50 is 8.00.

ALLDRDCRV: the pIC50 was 8.25.

Turning to ILFSYDELV, the negative logarithm of the IC50 (pIC50) is 8.25.

Take FLWSFLVLK: the negative logarithm of the IC50 (pIC50) is 5.85.

With ALPDTVAPV, the pIC50 is 8.04.

For LLMVAVIMAI, the pIC50 is 8.05.

KSMDDDTYV: the negative-log IC50 (pIC50) was 6.16.

On to FLSAKTLTV, for which the pIC50 is 7.96.

Consider MLDTWNEDL, for which the pIC50 was 6.99.

On to LLMNELLRV, for which the pIC50 was 8.08.

As for YVPPDMRGV, the negative logarithm of the IC50 (pIC50) was 6.29.

For RLDAEYWSV, the negative logarithm of the IC50 (pIC50) is 7.36.

With FVWQERAAV, the negative-log IC50 (pIC50) was 6.58.

Regarding FMPDFSRVI, the pIC50 is 7.00.

Turning to FLEDLSYPA, the negative-log IC50 (pIC50) was 9.19.

SLDAKQWSV: the pIC50 is 8.12.

For the sequence FIYLALLEA, the negative-log IC50 (pIC50) was 7.96.

RLPLYEALV: the pIC50 is 7.02.

For the sequence ALAAIENYV, the pIC50 was 8.57.

For the sequence FLSDSEAEA, the negative-log IC50 (pIC50) is 8.59.

For GLARLDALV, the negative logarithm of the IC50 (pIC50) was 7.89.

On to ALDHYDCLI, for which the negative-log IC50 (pIC50) is 6.74.

For YLLEQLNNL, the negative-log IC50 (pIC50) was 8.24.

In the case of FWMSPVFNL, the negative-log IC50 (pIC50) is 7.02.

For the sequence TMRDDLPLV, the pIC50 was 7.21.

VLPATFAAV: the negative logarithm of the IC50 (pIC50) is 7.96.

As to LVVTAIVYV, the pIC50 is 6.73.

AMNRRIMNV: the pIC50 was 5.92.

For the sequence KLLWAVEPL, the negative-log IC50 (pIC50) is 7.92.

Turning to RMWAWIHGL, the negative-log IC50 (pIC50) was 7.21.

TISKPSEAV: the pIC50 is 5.32.

Consider FILDALAQA, for which the negative logarithm of the IC50 (pIC50) is 8.59.

As for SLSTYTVPI, the pIC50 is 7.89.

Regarding ALYACVLAA, the negative logarithm of the IC50 (pIC50) was 8.25.

For ALSALLTKL, the negative logarithm of the IC50 (pIC50) was 6.50.

Regarding LLPEIAPNA, the pIC50 was 7.52.

Take GLAVVLWSL: the pIC50 is 7.77.

For LLSNTLAEL, the negative-log IC50 (pIC50) was 8.29.

Turning to FLALVSNRV, the negative-log IC50 (pIC50) is 8.13.

Turning to QLFEAHPNV, the pIC50 is 6.59.

With RLQTYLTDI, the negative logarithm of the IC50 (pIC50) is 6.08.

As to AVLAFVALI, the negative logarithm of the IC50 (pIC50) was 6.97.

Consider LLYLITNYL, for which the pIC50 is 7.96.

Consider FAFRYVNRL, for which the negative-log IC50 (pIC50) is 6.91.

As for VLADDVYPL, the pIC50 was 8.62.

Consider AVFGVVAIV, for which the negative-log IC50 (pIC50) was 6.60.

Take SLFDCIVPV: the negative logarithm of the IC50 (pIC50) was 9.77.

With MLWTTDKHV, the negative logarithm of the IC50 (pIC50) was 5.89.

On to FLHLYLFLT, for which the negative logarithm of the IC50 (pIC50) is 6.25.

Consider RLPRYLACL, for which the pIC50 was 7.12.

As for VLMDGHTGM, the pIC50 was 6.87.

On to VLLEKAPPL, for which the negative-log IC50 (pIC50) was 7.62.

Turning to RLTGVTSLV, the negative-log IC50 (pIC50) is 7.89.

In the case of FADTVVACV, the pIC50 is 7.23.

Consider RLMNDWAEV, for which the pIC50 is 7.62.

With ALLEACLRV, the pIC50 was 8.18.

As to KQLNYCHLI, the pIC50 was 6.40.

Turning to VTTDSVRAL, the negative-log IC50 (pIC50) was 5.27.

With SMDDDTYVA, the pIC50 was 6.26.

In the case of YIFSYDAYT, the pIC50 is 6.51.

With IILTLIPRL, the pIC50 was 6.90.

On to FILDNPGFV, for which the pIC50 is 7.96.

In the case of KLMARRAQV, the negative logarithm of the IC50 (pIC50) is 6.10.

As for FLMAPDLYV, the pIC50 was 8.19.

Take LLSGLPTYA: the negative logarithm of the IC50 (pIC50) was 6.75.

On to YLLGRPPNA, for which the pIC50 was 7.92.

In the case of RLARCLTPA, the negative logarithm of the IC50 (pIC50) was 7.64.

Take FLCAKCLGA: the pIC50 was 6.86.

For YLDEAGGHL, the negative logarithm of the IC50 (pIC50) was 7.64.

Consider FADSDGHYV, for which the pIC50 is 6.85.

For LLANNPPPV, the pIC50 was 7.62.

On to FLYLAFVAL, for which the pIC50 was 5.71.

Turning to GLVSFNFLV, the negative-log IC50 (pIC50) is 9.30.

As to TIHCFFFAV, the pIC50 was 6.97.

Take SLRNVLAAV: the pIC50 is 8.27.

Regarding GPGDPDVYL, the pIC50 was 4.51.

For NTLMFMVYV, the negative logarithm of the IC50 (pIC50) is 7.16.

Regarding ALSPALTAL, the pIC50 was 6.71.

On to YVLHFACLV, for which the pIC50 was 8.12.

Turning to KMDIDVEYL, the pIC50 is 6.83.

For the sequence YLGAFLSVL, the pIC50 was 7.80.

For LITNYLPSV, the negative-log IC50 (pIC50) was 8.28.

Turning to KLLALLGQV, the pIC50 was 7.48.

Turning to YLALLEACL, the pIC50 is 8.12.

Consider LLDTGPFSA, for which the negative logarithm of the IC50 (pIC50) is 7.03.

As to VLVVQPAPV, the pIC50 was 6.95.

As for DLAEWVPRV, the negative logarithm of the IC50 (pIC50) was 8.37.

With ALQTDNYTL, the negative logarithm of the IC50 (pIC50) is 7.54.

Turning to RLYRWQPDL, the negative-log IC50 (pIC50) was 6.04.

Turning to FVFVILARL, the negative-log IC50 (pIC50) is 6.14.

For FIAPLGFSL, the negative logarithm of the IC50 (pIC50) is 8.19.

ILMILIEGI: the negative logarithm of the IC50 (pIC50) is 7.92.

Turning to ALGERLDAV, the pIC50 was 7.60.

As to ELACLLMYL, the negative logarithm of the IC50 (pIC50) was 7.27.

Take RLDSLDLTL: the negative-log IC50 (pIC50) was 7.00.

For AVVPIIPFL, the pIC50 is 5.99.

Turning to VLANFCSAL, the pIC50 was 7.85.

Turning to MLCGFSPAL, the pIC50 was 8.07.

With LLSALGLSV, the negative logarithm of the IC50 (pIC50) was 8.05.

As to SLLDSLLVM, the pIC50 is 7.12.

Regarding LLGGVMAAV, the pIC50 is 7.60.

LVWYTVFGA: the negative logarithm of the IC50 (pIC50) is 6.46.

RLLGFADTV: the pIC50 is 7.57.

Turning to ELFGEAFEV, the negative-log IC50 (pIC50) is 7.05.

Take MLIKGVDLV: the pIC50 is 7.80.

On to MMLRDRWSL, for which the pIC50 is 7.85.

As to GLLFVLLVA, the negative logarithm of the IC50 (pIC50) was 5.97.

Turning to FVYTPSPYV, the pIC50 is 6.89.

Regarding LLLISMYAL, the pIC50 was 8.33.

Regarding RLDALVVAA, the pIC50 was 7.36.

On to TLRDTIPDC, for which the pIC50 was 5.86.

In the case of VLGCDAALV, the negative-log IC50 (pIC50) is 6.28.

Consider TLLDQNNAL, for which the pIC50 is 7.41.

As for YLCPVLVFV, the pIC50 was 8.02.

Take FLARFWTRA: the pIC50 is 7.32.

YLLNYAGRI: the negative logarithm of the IC50 (pIC50) was 6.71.

On to YLSRTQRLA, for which the pIC50 was 6.96.

For the sequence FITTMAPRV, the pIC50 was 7.49.

For the sequence IAPNASLGV, the pIC50 is 6.96.

Regarding VMAARPMVV, the pIC50 is 6.58.

For the sequence VLGAAIWWV, the negative-log IC50 (pIC50) is 7.14.

Turning to YLANGGFLI, the pIC50 was 9.25.

As for LLDFELACL, the negative-log IC50 (pIC50) was 7.20.

Take ILFLWSFLV: the negative logarithm of the IC50 (pIC50) is 9.44.

Consider FVPYVLALV, for which the pIC50 was 9.05.

As to TLSGMGYYL, the negative logarithm of the IC50 (pIC50) is 6.83.

On to LLYNGAYHL, for which the negative-log IC50 (pIC50) was 8.12.

Consider RLFDFFSRV, for which the negative logarithm of the IC50 (pIC50) is 9.70.

Values taken from the Immune Epitope Database (IEDB).
